Results published in patent US20260167728A1 (published 2026).

biological target: T1, huCD3e-mFc (human, UniProt P07766 23-126); assay: Pool 3 screen
T1 construct: not shown: mFc, not described
T1 sequence (P07766 23-126): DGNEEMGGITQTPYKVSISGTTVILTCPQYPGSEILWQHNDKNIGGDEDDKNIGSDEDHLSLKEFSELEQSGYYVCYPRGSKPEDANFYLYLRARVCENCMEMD

Binder	Kd [nM]
AC3848 (CD3.344) (scFv, V domains shown, Pool 3 format (remarks)) VH: EVQLVESGGGIVQPGGSLRLSCAASGFTFNTYAMNWVRQAPGKGLEWVGRIRTKTNDYATYYADSVKGRFTISRDDSKNTLYLQMNSLKTEDTAVYYCVRHENFGNSYVSWFAHWGQGTLVTVSS VL: ELVVTQEPSLTVSPGGTVTLTCRSSNGAVTSSNYANWVQQKPGQAPRGLIGGTNKRAPGTPARFSGSLLGGKAGLTLSGVQPEDEAVYYCALWYPNLWVFGGGTKLTVL	14.2
AC3834 (CD3.330) (scFv, V domains shown, Pool 3 format (remarks)) VH: EVQLVESGGGIVQPGGSLRLSCAASGFTFNTYAMNWVRQAPGKGLEWVGRIRTKTNDYATYYADSVKGRFTISRDDSKNTAYLQMNSLKTEDTAVYYCVRHENFGNSYVSWFAHWGQGTLVTVSS VL: ELVVTQEPSLTVSPGGTVTLTCRSSNGAVTSSNYANWVQQKPGQAPRGLIGGTNKRAPGTPARFSGSGLGGKAALTLSGVQPEDEAVYYCALWYPNLWVFGGGTKLTVL	23.4
AC3836 (CD3.332) (scFv, V domains shown, Pool 3 format (remarks)) VH: EVQLVESGGGIVQPGGSLRLSCAASGFTFNTYAMNWVRQAPGKGLEWVGRIRTKTNDYATYYADSVKGRFTISRDDSKNTAYLQMNSLKTEDTAVYYCVRHENFGNSYVSWFAHWGQGTLVTVSS VL: ELVVTQEPSLTVSPGGTVTLTCRSSNGAVTSSNYANWVQQKPGQAPRGLIGGTNKRAPGTPARFSGSLEGGKAALTLSGVQPEDEAVYYCALWYPNLWVFGGGTKLTVL	30.6
AC3839 (CD3.335) (scFv, V domains shown, Pool 3 format (remarks)) VH: EVQLVESGGGIVQPGGSLRLSCAASGFTFNTYAMNWVRQAPGKGLEWVGRIRTKTNDYATYYADSVKGRFTISRDDSKNTAYLQMNSLKTEDTAVYYCVRHENFGNSYVSWFAHWGQGTLVTVSS VL: ELVVTQEPSLTVSPGGTVTLTCRSSNGAVTSSNYANWVQQKPGQAPRGLIGGTNKRAPGTPARFSGSLLGGKAGLTLSGVQPEDEAVYYCALWYPNLWVFGGGTKLTVL	24.5
AC3849 (CD3.345) (scFv, V domains shown, Pool 3 format (remarks)) VH: EVQLVESGGGIVQPGGSLRLSCAASGFTFNTYAMNWVRQAPGKGLEWVGRIRTKTNDYATYYADSVKGRFTISRDDSKNTLYLQMNSLKTEDTAVYYCVRHENFGNSYVSWFAHWGQGTLVTVSS VL: ELVVTQEPSLTVSPGGTVTLTCRSSNGAVTSSNYANWVQQKPGQAPRGLIGGTNKRAPGTPARFSGSLLEGKAALTLSGVQPEDEAVYYCALWYPNLWVFGGGTKLTVL	18
AC3837 (CD3.333) (scFv, V domains shown, Pool 3 format (remarks)) VH: EVQLVESGGGIVQPGGSLRLSCAASGFTFNTYAMNWVRQAPGKGLEWVGRIRTKTNDYATYYADSVKGRFTISRDDSKNTAYLQMNSLKTEDTAVYYCVRHENFGNSYVSWFAHWGQGTLVTVSS VL: ELVVTQEPSLTVSPGGTVTLTCRSSNGAVTSSNYANWVQQKPGQAPRGLIGGTNKRAPGTPARFSGSLGGGKAALTLSGVQPEDEAVYYCALWYPNLWVFGGGTKLTVL	17.9
AC3842 (CD3.338) (scFv, V domains shown, Pool 3 format (remarks)) VH: EVQLVESGGGIVQPGGSLRLSCAASGFTFNTYAMNWVRQAPGKGLEWVGRIRTKTNDYATYYADSVKGRFTISRDDSKNTLYLQMNSLKTEDTAVYYCVRHENFGNSYVSWFAHWGQGTLVTVSS VL: ELVVTQEPSLTVSPGGTVTLTCRSSNGAVTSSNYANWVQQKPGQAPRGLIGGTNKRAPGTPARFSGSALGGKAALTLSGVQPEDEAVYYCALWYPNLWVFGGGTKLTVL	17
AC3845 (CD3.341) (scFv, V domains shown, Pool 3 format (remarks)) VH: EVQLVESGGGIVQPGGSLRLSCAASGFTFNTYAMNWVRQAPGKGLEWVGRIRTKTNDYATYYADSVKGRFTISRDDSKNTLYLQMNSLKTEDTAVYYCVRHENFGNSYVSWFAHWGQGTLVTVSS VL: ELVVTQEPSLTVSPGGTVTLTCRSSNGAVTSSNYANWVQQKPGQAPRGLIGGTNKRAPGTPARFSGSLEGGKAALTLSGVQPEDEAVYYCALWYPNLWVFGGGTKLTVL	15.8
AC3838 (CD3.334) (scFv, V domains shown, Pool 3 format (remarks)) VH: EVQLVESGGGIVQPGGSLRLSCAASGFTFNTYAMNWVRQAPGKGLEWVGRIRTKTNDYATYYADSVKGRFTISRDDSKNTAYLQMNSLKTEDTAVYYCVRHENFGNSYVSWFAHWGQGTLVTVSS VL: ELVVTQEPSLTVSPGGTVTLTCRSSNGAVTSSNYANWVQQKPGQAPRGLIGGTNKRAPGTPARFSGSLDGGKAALTLSGVQPEDEAVYYCALWYPNLWVFGGGTKLTVL	30.7
AC3840 (CD3.336) (scFv, V domains shown, Pool 3 format (remarks)) VH: EVQLVESGGGIVQPGGSLRLSCAASGFTFNTYAMNWVRQAPGKGLEWVGRIRTKTNDYATYYADSVKGRFTISRDDSKNTAYLQMNSLKTEDTAVYYCVRHENFGNSYVSWFAHWGQGTLVTVSS VL: ELVVTQEPSLTVSPGGTVTLTCRSSNGAVTSSNYANWVQQKPGQAPRGLIGGTNKRAPGTPARFSGSLLEGKAALTLSGVQPEDEAVYYCALWYPNLWVFGGGTKLTVL	32.6
AC3843 (CD3.339) (scFv, V domains shown, Pool 3 format (remarks)) VH: EVQLVESGGGIVQPGGSLRLSCAASGFTFNTYAMNWVRQAPGKGLEWVGRIRTKTNDYATYYADSVKGRFTISRDDSKNTLYLQMNSLKTEDTAVYYCVRHENFGNSYVSWFAHWGQGTLVTVSS VL: ELVVTQEPSLTVSPGGTVTLTCRSSNGAVTSSNYANWVQQKPGQAPRGLIGGTNKRAPGTPARFSGSGLGGKAALTLSGVQPEDEAVYYCALWYPNLWVFGGGTKLTVL	15.4
AC3835 (CD3.331) (scFv, V domains shown, Pool 3 format (remarks)) VH: EVQLVESGGGIVQPGGSLRLSCAASGFTFNTYAMNWVRQAPGKGLEWVGRIRTKTNDYATYYADSVKGRFTISRDDSKNTAYLQMNSLKTEDTAVYYCVRHENFGNSYVSWFAHWGQGTLVTVSS VL: ELVVTQEPSLTVSPGGTVTLTCRSSNGAVTSSNYANWVQQKPGQAPRGLIGGTNKRAPGTPARFSGSLNGGKAALTLSGVQPEDEAVYYCALWYPNLWVFGGGTKLTVL	35.7

More lines, now with the values ahead:

Kd [nM]	Binder
10	AC3825 (CD3.321) (scFv, V domains shown, Pool 3 format (remarks)) VH: EVQLVESGGGIVQPGGSLRLSCAASGFTFNTYAMNWVRQAPGKGLEWVGRIRTKTNNYATYYADSVKGRFTISRDDSKNTVYLQMNSLKTEDTAVYYCVRHENFGNSYVSWFAHWGQGTLVTVSS VL: ELVVTQEPSLTVSPGGTVTLTCRSSNGAVTSSNYANWVQQKPGQAPRGLIGGTNKRAPGTPARFSGSGLGGKAALTLSGVQPEDEAVYYCALWYPNLWVFGGGTKLTVL
14	AC3847 (CD3.343) (scFv, V domains shown, Pool 3 format (remarks)) VH: EVQLVESGGGIVQPGGSLRLSCAASGFTFNTYAMNWVRQAPGKGLEWVGRIRTKTNDYATYYADSVKGRFTISRDDSKNTLYLQMNSLKTEDTAVYYCVRHENFGNSYVSWFAHWGQGTLVTVSS VL: ELVVTQEPSLTVSPGGTVTLTCRSSNGAVTSSNYANWVQQKPGQAPRGLIGGTNKRAPGTPARFSGSLDGGKAALTLSGVQPEDEAVYYCALWYPNLWVFGGGTKLTVL
12.3	AC3857 (CD3.353) (scFv, V domains shown, Pool 3 format (remarks)) VH: EVQLVESGGGIVQPGGSLRLSCAASGFTFSTYAMNWVRQAPGKGLEWVGRIRTKTNNYATYYADSVKGRFTISRDDSKNTVYLQMNSLKTEDTAVYYCVRHENFGNSYVSWFAHWGQGTLVTVSS VL: ELVVTQEPSLTVSPGGTVTLTCRSSNGAVTSSNYANWVQQKPGQAPRGLIGGTNKRAPGTPARFSGSLLGGKAGLTLSGVQPEDEAVYYCALWYPNLWVFGGGTKLTVL
9.99	AC3846 (CD3.342) (scFv, V domains shown, Pool 3 format (remarks)) VH: EVQLVESGGGIVQPGGSLRLSCAASGFTFNTYAMNWVRQAPGKGLEWVGRIRTKTNDYATYYADSVKGRFTISRDDSKNTLYLQMNSLKTEDTAVYYCVRHENFGNSYVSWFAHWGQGTLVTVSS VL: ELVVTQEPSLTVSPGGTVTLTCRSSNGAVTSSNYANWVQQKPGQAPRGLIGGTNKRAPGTPARFSGSLGGGKAALTLSGVQPEDEAVYYCALWYPNLWVFGGGTKLTVL
7.21	AC3828 (CD3.324) (scFv, V domains shown, Pool 3 format (remarks)) VH: EVQLVESGGGIVQPGGSLRLSCAASGFTFNTYAMNWVRQAPGKGLEWVGRIRTKTNNYATYYADSVKGRFTISRDDSKNTVYLQMNSLKTEDTAVYYCVRHENFGNSYVSWFAHWGQGTLVTVSS VL: ELVVTQEPSLTVSPGGTVTLTCRSSNGAVTSSNYANWVQQKPGQAPRGLIGGTNKRAPGTPARFSGSLGGGKAALTLSGVQPEDEAVYYCALWYPNLWVFGGGTKLTVL
10.6	AC3844 (CD3.340) (scFv, V domains shown, Pool 3 format (remarks)) VH: EVQLVESGGGIVQPGGSLRLSCAASGFTFNTYAMNWVRQAPGKGLEWVGRIRTKTNDYATYYADSVKGRFTISRDDSKNTLYLQMNSLKTEDTAVYYCVRHENFGNSYVSWFAHWGQGTLVTVSS VL: ELVVTQEPSLTVSPGGTVTLTCRSSNGAVTSSNYANWVQQKPGQAPRGLIGGTNKRAPGTPARFSGSLNGGKAALTLSGVQPEDEAVYYCALWYPNLWVFGGGTKLTVL
12.2	AC3841 (CD3.337) (scFv, V domains shown, Pool 3 format (remarks)) VH: EVQLVESGGGIVQPGGSLRLSCAASGFTFNTYAMNWVRQAPGKGLEWVGRIRTKTNDYATYYADSVKGRFTISRDDSKNTLYLQMNSLKTEDTAVYYCVRHENFGNSYVSWFAHWGQGTLVTVSS VL: ELVVTQEPSLTVSPGGTVTLTCRSSNGAVTSSNYANWVQQKPGQAPRGLIGGTNKRAPGTPARFSGSLLGGKAALTLSGVQPEDEAVYYCALWYPNLWVFGGGTKLTVL
6.65	AC3830 (CD3.326) (scFv, V domains shown, Pool 3 format (remarks)) VH: EVQLVESGGGIVQPGGSLRLSCAASGFTFNTYAMNWVRQAPGKGLEWVGRIRTKTNNYATYYADSVKGRFTISRDDSKNTVYLQMNSLKTEDTAVYYCVRHENFGNSYVSWFAHWGQGTLVTVSS VL: ELVVTQEPSLTVSPGGTVTLTCRSSNGAVTSSNYANWVQQKPGQAPRGLIGGTNKRAPGTPARFSGSLLGGKAGLTLSGVQPEDEAVYYCALWYPNLWVFGGGTKLTVL
10.1	AC3829 (CD3.325) (scFv, V domains shown, Pool 3 format (remarks)) VH: EVQLVESGGGIVQPGGSLRLSCAASGFTFNTYAMNWVRQAPGKGLEWVGRIRTKTNNYATYYADSVKGRFTISRDDSKNTVYLQMNSLKTEDTAVYYCVRHENFGNSYVSWFAHWGQGTLVTVSS VL: ELVVTQEPSLTVSPGGTVTLTCRSSNGAVTSSNYANWVQQKPGQAPRGLIGGTNKRAPGTPARFSGSLDGGKAALTLSGVQPEDEAVYYCALWYPNLWVFGGGTKLTVL
7	AC3826 (CD3.322) (scFv, V domains shown, Pool 3 format (remarks)) VH: EVQLVESGGGIVQPGGSLRLSCAASGFTFNTYAMNWVRQAPGKGLEWVGRIRTKTNNYATYYADSVKGRFTISRDDSKNTVYLQMNSLKTEDTAVYYCVRHENFGNSYVSWFAHWGQGTLVTVSS VL: ELVVTQEPSLTVSPGGTVTLTCRSSNGAVTSSNYANWVQQKPGQAPRGLIGGTNKRAPGTPARFSGSLNGGKAALTLSGVQPEDEAVYYCALWYPNLWVFGGGTKLTVL
